# B1: human tRNALys3, in vitro transcribed (structured_RNA)
# RNA: GCCCGGAUAGCUCAGUCGGUAGAGCAUCAGACUUUUAAUCUGAGGGUCCAGGGUUCAAGUCCCUGUUCGGGCGCCA
# modifications: unmodified transcript
# Target: HIV-1 matrix MA1-131 (HIV-1, UniProt C1JB69 2-132)
# Assay: ITC
binder,measurement,value
B1,Kd,270 ± 20 nM

# — publication PMC8715211
